Measurements from patent publication US20100216693A1, “COMPOSITIONS AND METHODS OF TREATING DIABETES” (priority 2005, published 2010).
Entries after “also recorded” stand apart in the source; their conditions may differ.

Key:
[1] = molecular target: T1, insulin-insulin interaction (Homo sapiens, UniProt P01308); assay: SPR: effect of substances mixed with insulin in solution on insulin-insulin interaction; format: binding; conditions: for effect on insulin-insulin interaction when injected along with insulin: 1:5 molar ratio
T1 construct: 28; purchased Novo Nordisk A/S, Denmark Actrapid
T1 sequence (P01308 25-54 limits assumed): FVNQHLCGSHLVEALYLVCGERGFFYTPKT
T1 sequence (P01308 90-110 limits assumed): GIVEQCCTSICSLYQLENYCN
Method: BiacorA Biacore 3000 instrument was employed for the interaction measurements based on surface plasmon resonance (SPR). Interaction analyses were performed at 25° C. in 10 mM Na-citrate buffers pH 3, 4, 5, 10 mM bis-Tris, pH 6, and 10 mM Tris/HC1, pH 7, all buffers containing 100 mM NaCl and 0.005% 5P20. Flow rates for the binding analyses were kept at 20 μl/min. […] Insulin was immobilized on a carboxymethyl-modified dextran surface via both amine and carboxyl coupling, using the surface thiol method, in two different lanes of Biacore CM5 chips. The immobilization was carried out according to the procedure described in the kits. In brief, the sensor chip surface was first washed with 4 M LiCl/HBS for 1 min and then with 0.2% SP20/HBS for 1 mM. The surface was activated according to standard procedure with an injection of 0.05 M NHS/0.2 M EDC for 7 min. Desalted insulin solution was diluted in acetate buffer, pH 4.5, to 20 μg/ml and injected at 50/min for different time intervals. For surface thiol coupling, the surface was first activated with 0.05 M NHS/0.2 M EDC for 2 min followed by a 3 min injection of 40 mM cystamine dihydrochloride and then 0.1 M DTE for 3 min. […] The mixture was incubated for 10 mM at room temperature and excess PDEA was removed on a NAP-10 column. The purified PDEA ligand was injected for 7 min, soon after DTE, and finally the surface was washed with 20 mM PDEA in 0.1 M sodium acetate, 1.0 M NaCl. For quick regeneration of the surface, 2 M guanidine-HC1, pH 6.4, was employed. For controls, lanes activated and deactivated according to the standard procedures were used. For subtraction of noise from the data, running buffer only was injected to all surfaces. For the C-terminal attachment, surface-thiol coupling to 4000-5000 RU was used, and for N-terminal attachment, amine coupling to 800-1000 RU as achieved on different CM5 chips. However for kinetic analysis immobilization was carried out in a controlled condition and around 1000 RU for C-terminal and 400 RU for N-terminal coupling were immobilized. A surface activated with EDC/NHS and deactivated with ethanolamine was used as a control surface for N-terminally immobilized insulin and a surface treated with EDC/NHS, cysteine/DTE and finally deactivated with PDEA-NaCl was used as a control for C-terminally immobilized insulin. Biacore data were analyzed with Bia-evaluation software 4.1. All calculations based on numerical approaches, including simulations and global curve fitting for estimates of active concentrations, were performed with IGOR Pro (version 4.01.A, WaveMetrics, Inc.). However, C-peptide, mixed with insulin in solution, influences the insulin-insulin monomer interactions measured above. […] This elevated interaction can be seen at different pH from 3-7. The phenomenon of more pronounced interaction was clearer when concentrations higher than 0.5 μM were used then below 0.5 μM. […] All concentrations were run in triplicates and in random order.

[2] = molecular target: T2, insulin immobilized on the surface of CM5 chip (Homo sapiens, UniProt P01308); assay: SPR: direct binding of C-peptide and variants to insulin immobilized on CM5 chip; conditions: pM-μM, pH 3-7
T2 construct: 28; purchased Novo Nordisk A/S, Denmark Actrapid
T2 sequence (P01308 25-54 limits assumed): as the sequence (P01308 25-54 limits assumed) above
Method: BiacorA Biacore 3000 instrument was employed for the interaction measurements based on surface plasmon resonance (SPR). Interaction analyses were performed at 25° C. in 10 mM Na-citrate buffers pH 3, 4, 5, 10 mM bis-Tris, pH 6, and 10 mM Tris/HC1, pH 7, all buffers containing 100 mM NaCl and 0.005% 5P20. Flow rates for the binding analyses were kept at 20 μl/min. […] Insulin was immobilized on a carboxymethyl-modified dextran surface via both amine and carboxyl coupling, using the surface thiol method, in two different lanes of Biacore CM5 chips. The immobilization was carried out according to the procedure described in the kits. In brief, the sensor chip surface was first washed with 4 M LiCl/HBS for 1 min and then with 0.2% SP20/HBS for 1 mM. The surface was activated according to standard procedure with an injection of 0.05 M NHS/0.2 M EDC for 7 min. Desalted insulin solution was diluted in acetate buffer, pH 4.5, to 20 μg/ml and injected at 50/min for different time intervals. For surface thiol coupling, the surface was first activated with 0.05 M NHS/0.2 M EDC for 2 min followed by a 3 min injection of 40 mM cystamine dihydrochloride and then 0.1 M DTE for 3 min. […] The mixture was incubated for 10 mM at room temperature and excess PDEA was removed on a NAP-10 column. The purified PDEA ligand was injected for 7 min, soon after DTE, and finally the surface was washed with 20 mM PDEA in 0.1 M sodium acetate, 1.0 M NaCl. For quick regeneration of the surface, 2 M guanidine-HC1, pH 6.4, was employed. For controls, lanes activated and deactivated according to the standard procedures were used. For subtraction of noise from the data, running buffer only was injected to all surfaces. […] Similar results where obtained when insulin was injected on C-peptide immobilized on the surface of a streptavidin (SA) chip. Both peptides were injected in concentration ranging from pM-μM at different pH from 3-7. […] This conclusion is compatible with the fact that C-peptide and insulin are joined in proinsulin by covalent bonds rather than binding attachments, and with little ordered structure in the C-peptide part. […] This appears relevant since C-peptide is very negative (−6 charges) with much repulsive forces.

insulin = molecular target: T3, insulin (Homo sapiens, UniProt P01308); assay: Non-denaturing nano-electrospray mass spectrometry of insulin, C-peptide and control peptides; format: binding
T3 construct: 28; purchased Novo Nordisk A/S, Denmark Actrapid
T3 sequence (P01308 25-54 limits assumed): as above
Method: For mass spectrometric analysis, preparation of concentrated insulin stock solution was performed essentially as described [Nettleton et al, 2000, Biophys J. 79:1053]. Briefly, insulin (NovoNordisk A/S, Denmark) was concentrated to 100 μM using ultrafiltration spin-filters (NanoSep, PallGellman, MWCO: 3000 Da). This stock solution was then buffer-exchanged to water, pH 5 (HCl), by extended dialysis. For all experiments, insulin and C-peptide stock solutions were diluted in water-HC1 (pH 5) to reach the indicated concentrations. C-peptide was prepared as a 746 μM stock solution in water and all control peptides were prepared similarly.
Mass spectrometry data were recorded with a QTOF Ultima API instrument (Waters, Milford, Mass.) operated in the positive ion mode. Sample solutions were analyzed by nanoelectrospray from conductive borosilicate glass capillaries (Proxeon Biosystems A/S, Odense, Denmark). Instrument settings were not modified for the observation of non-covalent complexes, other than that the “cone” and the “RF-lens” settings were set to 90 and 50 V, respectively.
The binding between insulin and C-peptide in the gas-phase was studied by non-denaturing electrospray mass spectrometry using a method analogous to that of Nettleton et al [Nettleton et al, 2000, Biophys J. 79:1053].

chip-bound C-peptide = molecular target: T4, chip-bound C-peptide (Homo sapiens, UniProt P01308); assay: SPR: binding of C-peptide in solution to chip-bound C-peptide
T4 sequence (P01308 57-87 limits assumed): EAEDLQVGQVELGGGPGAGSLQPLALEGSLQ
Method: Similar results where obtained when insulin was injected on C-peptide immobilized on the surface of a streptavidin (SA) chip. Both peptides were injected in concentration ranging from pM-μM at different pH from 3-7. […] This conclusion is compatible with the fact that C-peptide and insulin are joined in proinsulin by covalent bonds rather than binding attachments, and with little ordered structure in the C-peptide part. […] This appears relevant since C-peptide is very negative (−6 charges) with much repulsive forces.

Glu11-Ala: C-peptide analogue in which Glu 11 has been substituted with Ala (EAEDLQVGQVALGGGPGAGSLQPLALEGSLQ)
effect on insulin-insulin interaction when injected along with insulin [1]: failed to show any significant increase | interaction with immobilized insulin (peptide alone in solution) [2]: showed no interaction with insulin

Glu27-Ala: C-peptide analogue in which Glu 27 has been substituted with Ala (EAEDLQVGQVELGGGPGAGSLQPLALAGSLQ)
effect on insulin-insulin interaction when injected along with insulin [1]: failed to show any significant increase | stimulation of SPR-measurable binding in mixture with insulin in the flow-through solution ([1]; Example 10): did also not stimulate the SPR signal | interaction with immobilized insulin (peptide alone in solution) [2]: showed no interaction with insulin

Proinsulin C-peptide (EAEDLQVGQVELGGGPGAGSLQPLALEGSLQ)
effect on insulin-insulin interaction (SPR binding signal) when mixed with insulin ([1]; insulin:peptide 1:1 and 1:5, pH 3-7): higher interaction with immobilized insulin; also recorded: increases the observable SPR binding signal | effect of C-peptide on insulin-insulin interaction at pH 4 or 7 ([1]; pH 4 or 7, 10 μM insulin, 50 μM C-peptide): little effect | effect of C-peptide on insulin-insulin interaction at pH 5-6 ([1]; pH 5-6, 10 μM insulin, 50 μM C-peptide): Enhanced insulin interaction | self-aggregation of the peptide in the gas-phase (insulin): showed an aggregation tendency | interaction with insulin in nanoESI-MS at 0.3 μM (insulin; 0.3 μM level, 1:1 ratio): not possible to detect | interaction (heterodimer) with insulin in nanoESI-MS (insulin; 3 μM, 1:1 ratio, pH 5): clearly shows the interaction | hexameric insulin charge states in the presence of the peptide (insulin; 30 μM insulin, 30 μM peptide, pH 5): no hexameric insulin was detectable; also recorded: absence of insulin hexamers | concentration at which a dimer of the peptide was detected (insulin; gas-phase): 3 µM | interaction with immobilized insulin (peptide alone in solution) [2]: not to give any observable binding | interaction with immobilized insulin (peptide alone in solution) ([2]; listed as Proinsulin C-peptide): showed no interaction with insulin | binding of C-peptide in solution to chip-bound C-peptide (chip-bound C-peptide): no evidence for such binding
